Assay: yeast display, Sf9 membrane polyspecificity reagent, FACS + sequencing; frameworks hold sequencing errors
Summary of the method: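 Polyreactivity labels are assigned by the sorting gate from which each nanobody was recovered. The gates were low and high (top ~1%), set on anti-HA fluorescence for expression and streptavidin fluorescence for reagent binding. Before sorting, galactose-induced (36–48 hours) yeast display cells were stained for 1 hour at 4 °C with 10% biotinylated, detergent-solubilized Sf9 membrane reagent.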

| Sequence | polyreactivity (PSR sort gate) |
| --- | --- |
| QVQLVESGGGLVQVGGSLRLSCAASGSIFVENAMGWYRQAPGKERELVAAITSGGSTNYADSVKGRFTISRDNAKNTVYLQMNSLKPEDTAVYYCNADENYGYYTHFGYWGQGTQVTVSS | low polyreactivity |
| QVQRVESGGGLFQAGGRLRLSCAASGSISLKYAMGWYRQAPGKERELVATISRGGSTNYADSVKGRFTISRDNAKNTVYIQMNSLKPEDTAVYYCAANYGRPYGTYGYWGQGTQVTVSS | high polyreactivity |
| QVQLVESGGGLVQAGGSLRLSCAASGRTFTRYTSGSYRPAPGKERELVAAIRYSGGSTYYADSVKGRFTISGDNAKNTVYLQMNSLKPEDTAVYYCAARSYYYGFLYRYDYWGQGTQVTVSS | low polyreactivity |
| QVQLVESGGGLVQAGGSLGLSWAASGSIIRYNALGWYRQAPGKERELVAAITKGAGSTYYADSEKGRFTISRDNAKNTVYLHMNSLKPEDTEVYYCNKARGSGHTYYSWGQGTQVTVSS | high polyreactivity |
| QVQLVESGGGLVQAGGSLRLSCAASGRIYINNAMGWYRQAPGKDREFVAAITSGGRTYYADSVKGRFTISRDNAKYTVYLQMNSLKPEDTAVYYCAPRYYRQYTRHYGYGYWGQGTQVTVSS | high polyreactivity |
| QVQLVESGGRLVQAGGSLRLSCAASGSTIYPNAMGWSRQAPGKERELVAAISRGTRTKYADSVKGRFTISRDNAKNTVYVQMNSLKPEDTAVYYCAADTGTGLDWGQGTQGTVSS | high polyreactivity |
| QVQLVESGGGLVQAGGSLRLSCAASGITFFYNAMGWSRQAPGKERELVADITNSGSTYYADSVKVRFTISRDNAKNTVYLQMNSLKPEDTAVYDCAAGQAYDFFVYYPDDYWGQGTQVTVSS | low polyreactivity |
| QVQLVESGGGLVQAGVSLLLSCAASGSTLYYNAMGWYRQAPGKERELVAAITSGGSTSYADSVKGRFTISRDNAKHTVYLQRNSLKPEDTAVYYCAAVFYRRFDYWGQGTQVTVSS | low polyreactivity |
| QVQLVESGGGLVQAGGSLRLSCAASGLTFWSYAMGWYRQAPGKERELVAAISSGGRTYYADSVKGRFTISRDNAKNTVYLQMNSLKPEDTAVYYCNARSRRGPTKDDYWGQGTQVTVSS | high polyreactivity |
| QVQLVESGGGLVQAGGSLRLSCAASGRIFIYNAMGWYRQAPGKEREFVAAISRTGGNTYYADSVKGRFTISRDNAKNTVYLQMNSLKPEDTAVYYCATKRKWTYLSYDYWGQGTQVTVSS | low polyreactivity |
| QVHLVESGGGLVQAGGSLRLSCAASGSTFAGNTMGWYRQAPGKERELVASITSDGSTDYADSVKGRFTISRDNAKNTVYLQMNSLKPEDTAVYYCAIARGLSKMDSWGQGTQVTVSS | low polyreactivity |
| QVQLVESAGGLDQAGGSLRLSCAASGFTFVAYSMGLYRQAPGKERELVADISRGGSTFYADSVKGRFTISRDNAKISVYLQKNSLKPEDSAVYYCASTYIHSYGKFYYWGQGTQVTVSS | low polyreactivity |
| QVQLVESGGGLVQAGGSLRLSSAASGSRNAMGWSRQAPGKEREFVAAITWNGGSTYYADSVKGRFTISRDNAKNTVYLQMNSLKPEDTAVYYCNKREVFIYGTTYDYWGQGTQVTVSS | low polyreactivity |
| QVQLVESGGGLDQAGGSLRLSCAASGRTFIRNVMGWYRQAPGKERELVAGITGGGNTYYADSVKGRFTISRDNAKNTVYLQMNSLKPEDTAVYYCAVRYPSYGLSYVRYGYWGQGTQVTVSS | high polyreactivity |
| QVQLVDSGGGKVQAGGSLRLSCAASGITFSRNAMGWYRQAPGKEMELVAAITWNGGRTYYADSVKGRFTISRDNAKNTVDLQMNSLKPEDTAVYYCAADSGTRNLASYRYYYWGQGTQGTVSS | high polyreactivity |
| QVQLVESGGGLVQAGGSLRLSCDASGSTFDQYVMGWYRQAPWKERELVAAISVSGGRTYYADSVKGRFTISRDNAKNTVYLQMKSLKPDDTAVYYCNAPKRYSSIGYDYWGQGTQVTVSS | high polyreactivity |
| QVQLVESGVGLVQAGGRLRLSCAASGRIIYIYAMGWYRQAPGKERELVAAITASSGSTNYADSVKGRFTISRDNAKNTVYLQMNSLKPEDTAVYYCSAAPSRTLLRQTKYYYWGQGTQVTVSS | low polyreactivity |
| QVQLVESGGGLVQAGGSLRLSCAASGSIFYPNAMGWYRQAPGKERELVAAISSSGGTNYADSVKGRFTISRDNAKNTVYLQMNSLKPEDTAVYYCNARDKVRYRYSRMDYWGQGTQVTVSS | low polyreactivity |
| QVQLVESGGGLVQAGGSLRLSCAASGRIFGKYVMGWYRQAPGKERELVAAIRSSGGSTYYADSVKGRFTISRDNAKNTVYLQLNSLKPEDTAVYYCAKRLHYSAPRYTENDYWGQGTQVTVSS | high polyreactivity |
| QVQLVESVGGLVQAGGSLPLSCAASGRTFTSYAMGWYRQAPGKERELVAAINYSGGSTYYADSVKGRFTISRDNAKNTVYLQMNSLKPEETAVYYCAKSSHAREYYYWGQGTQVTVSS | low polyreactivity |
| QVQLVESGGGLVQAGGSLRLSCAASGRTFARYTMGWYSQAPVKERELVASITRGGSTYYADSVKGRFTISSDNAKNTVYLQMYSLKPEDTAVYYCNAVYIVGGDWGQGTQVTVSS | high polyreactivity |

| Sequence | polyreactivity (PSR sort gate) |
| --- | --- |
| QVQLVESGGGLVQAGGSLRLSCAASGITFGRNTMGWYRQAPGKERELVAAITYRSGRTYYADSVKGRFTISRDTAKNTVYLQMNILKPEDTAVYYCNTVSPYYDYDYWGQGTQVTVSS | high polyreactivity |
| QVQLVESGGGLVQAGGSLRLSCAASGGTIVYYAMGWYREAPGKERELVAAINWSGGSTYYADSVKGRFTISRDKAKNTVYLQMNSLKPEDTAVLLLQRSGLRRSGVWFDYWGQGTQVTVSS | low polyreactivity |
| QVQLVESGGGLVQAGGSLRLSSAASGSIFGYAMGCDRHAPGKERELVASTTYADSVKGRFTISRDNAKNTVYLQMNSLKPEDTAVYYCAAEDRPLYWRFPDEMDYWGQGTQVTVSS | low polyreactivity |
| QVQLVESGGGLVQAGGSLRLSCAASGYIFPKNAIGWYRQAPWKERELVAAITGSGGSTYYADSVKGRFTISRDNAKNTVYLQMNSLKPEDTAVYYCAKRSWIEYDYWGQGTQVTVSS | low polyreactivity |
| QVQLVESGGGLVQAGGSLRLSCAASGRTFVPYAMGWYRQAPGKERELVAAINSGTRTYADSVKGRFTISRDNAKNTVYLQMNSLKPEDTAVYYCARRGYYYDYWGQGTQVTVSS | high polyreactivity |
| QVQLVESGGGLVQAGGSLRLSCAASGYTFGIYAMGWYRQAPGKAREFVAAIRWSDTSTSYADSVKWRFTISRDNAKNTVYLQMNSLKPEDTAVYNCAADTFYLYDYWGQGTQVTVSS | low polyreactivity |
| QVQLVETGRGLVQEGGSLRLICAASGRTFYIYAMGWYRQAPGKERDLVAAISWGSGSPYYADSVKGRFTISRDNAKNTVYLQINSLKPEDTAVYYFAAEYAFPSEWTYDYWGQVTQVTVSS | low polyreactivity |
| QVHLVESGGGLVQAGGSLRLSCASSGYIIKYNAMGWYRPAPGKERELVAAISSIGGRTYYADSVKGRFTISRDNAKNTVYLQMNRLKPEDTAVYYCNAVGGRYTGWRYDDWGQGTQVTVSS | high polyreactivity |
| QVHLVESGGGLVQAGGSLRLSCAASGFTFSSNAMGWYRQAPGKERELVAAIRSGGTTKYADSVKGRFTISRDNAKNTLYLQMNSLKPEDTAVYYCAARIRDLAGYYYWGQGTQVTVSS | high polyreactivity |
| QVQLVESGGGLVQAGGSLRLSCAASGFTFSPYAMGGYRKAPGKERELVAAISSSGGSTYYADSVKGRFTISRDNAKNTVYLQMNSLKPEDTAVYYCATQGTRRPGKFYYWGQGTQVPVSS | high polyreactivity |
| QVQLVESGGGLVQAGGSLRLSCAASGSTFLNYAMGWYRQAPGKERELVAAISGSTTRTYYADSVKGRFTISRDNAKNTVYLQMNSLKPEDTAVYYCARYSLYTGYRRYPLDYDYWGQGTQVTVSS | high polyreactivity |
| QVQLVESGGGLVQAGGSLRLSCAASGSIFYSNTMGWYRQAPGKERELVAAISSSSGRTYYADSVKGRFTISRDNAKNTGFLQMNSLKPEDTAVYYCARRYGWGQGTQVTVSS | high polyreactivity |
| QVQLVESGGGLVQAGGSLRLSCAASGRIYRYAMGWYRQAPWKERELVASISRRGGSTYYADSVKGRFTISRDNAKNTVYVQMNSLKPEDTALYSCNAYGYSFCYDYWGHGTQVTVSS | high polyreactivity |
| QVQLVESGGGLVQAGGSLRLSCAASGSTFAVYTMGWYRQAPGKERELVAAISSSGGSTYLRRSVKGRFTISRDNAKNTVYLQMNSLKPEDTAVYYCAAQWYAGHWHVPYEYWGQGTQVTVSS | high polyreactivity |
| QVQLVESGGGLVQAGGSLRLSCAASGFIFGHYAMGWYRQAPGKERELVAAIRSRGGDRTYADSVKGRFTISRDNAKNTVYLQMNSLKPEDTAVYYCAADGPGTSEDDYWGQGTQVTVSS | high polyreactivity |
| QVQLVESGGGLVQAGGTLRISCAASGSTFLFYAMGWYRQAPGKERELVAAISSSGTSTYYADSVKGRFTISRDNAKNTVYLQMNSLKPEDTACYYCARRGRSLRWKYDYWGQGTQVTVSS | low polyreactivity |
| QVQLVESGGGLVQAGGSLRLSSAASGFIFQSYAMGWYRQAPGKERELVAAISASGGRTYYADSVKGRFTISRDNAKNTVYLQMNSLKPEDTAVYYCAAYRSYWAVYPRMYYWGQGTQVTVSS | high polyreactivity |
| QVQLVESGGGLVQAGGSLRLSCAASGFIVYTYAMGWYRPAPGKERELVAAISIGGRTNYADSVKGRFTISRDNAKNTVSLQMNSLKPEDTARYYCAARGYKRIGYWGQGTLVTVSS | high polyreactivity |
| QVQLVESGGGLVQAGGSLRLSCDPSGLTFNTYAMGWYRQAPGKERELVAAISSDGSTYYADSVKGRFTITRDNAKNTVYLQMNSLKPEDTAVYYCAATSFWWDLAGYYHWYDYWGQGTQVTVSS | high polyreactivity |
| QVQLVESGGGLVQAGGSLRLSCAASGFPFVYYVMGWYRPAPGKERELVAAINAGGGYTYYADSVKGRFTISRDNAKNTVYVQMNSLKPEDTAVYYCNARVRVRLGRNWSSYYYWGQGTQVTVSS | high polyreactivity |

From the nanobody polyreactivity screen of Harvey et al. (2022)
